In the supplement of paper PMC10567573:

B1: S100A14 (parent)
chain: KIANLGSCNDSKLEFRSFWELIGE

Variants of: B1
Experiment: protein stability index of a GFP-peptide fusion (GPS, HEK-293T) (PSI 1-6); higher = more stable
Conditions: c terminus: a fixed tail appended
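Also: lentivirally expressed fusions sorted by FACS into six bins by GFP to DsRed ratio, PSI derived from sequencing read proportions per bin multiplied by bin number.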

Protein stability index of substitutions, site by site:
R16: C 1.66, D 2.11, E 1.92, F 1.42, G 1.54, H 2.77, I 1.97, K 1.36, L 3.03, M 1.78, N 2.13, P 2.28, Q 1.98, S 2.65, T 1.61, V 2.3, W 2.25, Y 2.44
S17: A 3.38, C 2.16, D 1.95, E 1.87, F 2.52, G 1.33, H 1.46, I 2.45, K 2.2, L 2.86, M 1.29, N 1.5, P 1.65, Q 2.75, R 1.34, T 2.75, W 2.28, Y 1.84
F18: A 2.2, C 2.11, D 3.52, E 2.66, G 2.43, H 2.82, I 1.85, K 2.07, L 2.57, M 1.63, N 2.73, P 2.27, Q 1.98, R 2.5, S 2.08, T 1.89, V 1.52, W 2.16, Y 1.97
W19: A 1.89, C 1.46, D 3.58, E 3.25, F 2.03, G 2.68, H 2.74, I 1.97, K 2.11, L 1.56, M 1.79, N 2.71, P 3.25, Q 1.73, R 2.09, S 1.87, T 2.29, V 3.86, Y 1.78
E20: A 1.64, C 2.79, D 2.56, F 2.77, G 1.4, H 2.15, I 2.29, K 2.22, L 2.77, M 3.34, N 2.29, P 1.64, Q 1.62, R 2.45, S 1.94, T 1.59, V 1.73, Y 2.73
L21: A 2.74, C 1.62, D 2.57, E 2.08, F 2.16, G 2.33, H 1.9, I 1.54, K 1.86, M 1.23, N 2.55, P 2.59, Q 1.76, R 1.94, S 1.86, T 2, V 1.63, W 1.18, Y 2.23
I22: A 2.59, C 1.9, D 2.65, E 3.19, F 2.95, G 2.32, H 1.9, K 2.32, L 1.94, M 1.82, N 2.61, P 2.29, Q 2.24, R 1.98, S 2.28, T 2.25, V 1.79, W 1.67, Y 2
G23: A 1.89, C 1.73, D 1.75, E 2.15, F 1.44, H 2.29, I 1.86, K 1.82, L 1.62, M 2.25, N 2.21, P 2.04, Q 2.19, R 1.45, S 1.87, T 2.28, V 2.18, W 2.66, Y 1.75
E24: A 2.15, C 1.53, D 2.15, F 1.88, G 1.36, H 2.8, I 2.86, K 2.06, L 1.05, M 2.27, N 2.17, P 1.7, Q 2.11, R 1.37, S 1.78, T 1.9, W 2.1, Y 1.84
